Here are results for 1 molecule from patent US7078038 (INSTITUT DE RECHERCHE POUR LE DEVELOPPEMENT I R D, dated 2006).

The assay concerns the target T1, W338S gp120 (rgp120 of the HXB2 clone of HIV-IIIB with the W338S mutation) (HIV-1 (HXB2 clone of HIV-IIIB), UniProt P04578 33-511).
T1 construct: domain: gp120; Position counted in HxBc2 numbering; also called muted gp120; mutant gp120
The assay can be described thus: FACS on CEM cells: no labelling by anti-CXCR4 12GS after incubation with gp120.

B1: CXCR4 receptor on the cell surface (receptor)
chain: MEGISIYTSDNYTEEMGSGDYDSMKEPCFREENANFNKIFLPTIYSIIFLTGIVGNGLVILVMGYQKKLRSMTDKYRLHLSVADLLFVITLPFWAVDAVANWYFGNFLCKAVHVIYTVNLYSSVLILAFISLDRYLAIVHATNSQRPRKLLAEKVVYVGVWIPALLLTIPDFIFANVSEADDRYICDRFYPNDLWVVVFQFQHIMVGLILPGIVILSCYCIIISKLSHSKGHQKRKALKTTVILILAFFACWLPYYIGISIDSFILLEIIKQGCEFENTVHKWISITEALAFFHCCLNPILYAFLGAKFKTSAQHALTSVSRGSSLKILSKGKRGGHSSVSTESESSSFHSS
notes: whole, on cells; also called CXCR4 co-receptor; CEM cells CD4+/CXCR4+
As to B1, the binding result was “binds”.
